Data: paper PMC3114436 (Molecular cell, 2008)
Where a chain is given by its changes, count along the chain named. Names and notes keep the numbering of the source. One block for each molecule: values may come before it. No end group written: not given here.

Key:
Caulobacter ClpS = Caulobacter ClpS (Caulobacter vibrioides, UniProt Q9A5I0); test: ClpS binding assay by fluorescence anisotropy; design: species or system Caulobacter crescentus; details: Fig. 3B
[1] = target: T1, C. crescentus ClpS residues 35-119 (Caulobacter crescentus, UniProt Q9A5I0 35-119); test: fluorescence polarisation
T1 sequence (looked up): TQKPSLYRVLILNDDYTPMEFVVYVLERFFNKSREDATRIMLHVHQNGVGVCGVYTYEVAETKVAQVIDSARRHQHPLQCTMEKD

[2] = target: peptides with Tyr, Trp, Phe, or Leu at the N-terminus; test: fluorescence polarisation
[3] = target: T1, C. crescentus ClpS residues 35-119; test: crystal structure

Molecule: Xxx-Leu-Phe-Val-Gln-Tyr-His6-Cys [Tyr peptide]
affinity for Caulobacter ClpS (in words) (Caulobacter ClpS): sub-micromolar

B3: C. crescentus ClpS residues 35-119 (domain or fragment)
chain: T1 sequence (looked up)
Kd [2]: 150 to 500 nM

B4: E. coli ClpS D36A (natural protein)
chain: MGKTNDWLDFDQLAEEKVRDALKPPSMYKVILVNDAYTPMEFVIDVLQKFFSYDVERATQLMLAVHYQGKAICGVFTAEVAETKVAMVNKYARENEHPLLCTLEKA
KM of ClpAP degradation of Tyr-GFP with the ClpS variant (900 nM), fold increase (Tyr-GFP): 2 fold

B5: E. coli ClpS H66A (natural protein)
chain: B4 chain with A36D, H66A
KM of ClpAP degradation of Tyr-GFP with the ClpS variant (900 nM), fold increase (Tyr-GFP): 5 fold

The next lines start with the values.

binding result [1]: binds
B1: fluorescein-labelled N-end rule peptide Phe-Leu-Phe-Val-Gln-Tyr-His6-Cys (peptide)
peptide: FLFVQYHHHHHHC(fluorescein maleimide)

Kd [1]: ~400 nM
B2: fluorescein-labelled N-end rule peptide Tyr-Leu-Phe-Val-Gln-Tyr-His6-Cys (peptide)
peptide: YLFVQYHHHHHHC(fluorescein maleimide)

binding result [1]: binds
B6: fluorescein-labelled N-end rule peptide Trp-Leu-Phe-Val-Gln-Tyr-His6-Cys (peptide)
peptide: WLFVQYHHHHHHC(fluorescein maleimide)

binding result [1]: binds
B7: fluorescein-labelled N-end rule peptide Leu-Leu-Phe-Val-Gln-Tyr-His6-Cys (peptide)
peptide: LLFVQYHHHHHHC(fluorescein maleimide)

binding result [3]: binds
B8: N-end rule decapeptide Tyr-Leu-Phe-Val-Gln-Arg-Asp-Ser-Lys-Glu (peptide)
peptide: YLFVQRDSKE
